Reference: patent publication US20190358242A1, “COMPOSITIONS, KITS, AND METHODS TO INDUCE ACQUIRED CYTORESISTANCE USING STRESS PROTEIN INDUCERS” (FRED HUTCHINSON CANCER RESEARCH CENTER, priority 2017, published 2019)

How the values were obtained:
[1] = tested on: bilateral renal ischemic injury; assay: 22 min bilateral renal ischemic injury after mesoporphyrin pre-treatment; format: in vivo, mice; settings: 1 umole 18 hrs before 22 min bilateral ischemic injury
Experimental: FIG. 31. Tin mesoporphyrin pre-treatment mitigates renal ischemic injury. Mice received either 1 umole of Sn mesoporphyrin (MeP; n, 3) or vehicle (n,4) and 18 hrs later they were all subjected to 22 min of bilateral ischemic injury.
Protection against acute kidney injury. Mice are treated with MesP alone (0.1-20.5 umoles), FeS alone (1 mg), MesP+FeS, or vehicle injection. Eighteen hrs post injections, the mice are anesthetized with pentobarbital. The abdominal cavities are opened. The renal pedicles are identified, and both are occluded with microvascular clamps. Body temperature are maintained at 36-37° C. throughout. Following 22 minutes of bilateral renal ischemia, the clamps are removed, uniform reperfusion are confirmed by the loss of tissue cyanosis, and then the abdominal cavities are closed in two layers with silk suture. Eighteen hrs later, the mice are re-anesthetized, the abdominal cavities are re-opened, and terminal blood samples are obtained from the vena cava. AKI severity are determined by degrees of BUN and plasma creatinine increases.

haptoglobin = assay: Tin mesoporphyrin: renal cortical and plasma haptoglobin levels; format: in vivo, mice; settings: 4 and 18 hrs post 1 umole injection
HO-1 protein [2] = assay: Tin mesoporphyrin: renal cortical and plasma HO-1 protein (ELISA); format: in vivo, mice
Source text: FIG. 29. Tin mesoporphryin effects on renal cortical and plasma HO-1 protein levels at 4 and 18 hrs post 1 umole injection. By 4 hrs and 18 hrs post Sn mesoporphyrin injection, an approximate 3 fold and 5 fold increases in renal cortical HO-1 levels over baseline (BL) were observed, as detected by ELISA. Plasma HO-1 levels rose ˜15 fold by 18 hrs post injection (n, 3-4 per group).

HO-1 mRNA [3] = assay: SnPP vs. SnMeP: renal cortical HO-1 mRNA induction (RT-PCR); format: in vivo, mice; settings: 1 umole, 4 hrs post injection, n 3
Source text: (§1) FIG. 28. Comparison of SnPP vs. SnMeP effects on renal cortical HO-1 and haptoglobin mRNA induction 4 hrs post agent injection. Mice received either 1 umole tin protoporphyrin (SnPP), tin mesoporphyrin (SnMeP), or vehicle (n, 3 each) and 4 hrs renal cortical RNA was extracted and subjected to RT-PCR.

haptoglobin mRNA [4] = assay: SnPP vs. SnMeP: renal cortical haptoglobin mRNA induction (RT-PCR); format: in vivo, mice; settings: 1 umole, 4 hrs post injection, n 3
Source text: as §1

haptoglobin mRNA [5] = assay: Cardiac haptoglobin mRNA (RT-PCR); format: in vivo, CD-1 mice
Experimental: (§2) Thirty-two mice were divided into 4 equal groups: (1) control mice; (2) mice treated with 1 mg of N-Mgb injection (as a bolus through the tail vein); (3) mice treated with […] of SnPP (via tail vein); and (4) mice treated with combined N-Mgb 1 SnPP. After either 4 hours (n=16) or 18 hours (n=16), the mice were deeply anesthetized with pentobarbital (50 mg/kg), the abdomen was opened through a midline abdominal incision, and the kidneys were removed. To determine potential effects on extrarenal organs, a liver lobe and the heart were also removed. The tissues were iced and then extracted for protein and RNA (RNeasy Plus Mini; Qiagen, Valencia, Calif.) and subjected to enzyme linked immunosorbent assay (ELISA) and reverse transcriptase polymerase chain reaction (RT-PCR) for HO-1, haptoglobin, and IL-10 protein and messenger RNAs (mRNAs). Zager et al. J Am Soc Nephrol 2014; 25:998-1012; Zager et al. Am J Physiol 2012; 303:F139-48. As an assessment of renal function, control mice and the 18 hour after N-Mgb+SnPP-treated mice had blood urea nitrogen (BUN) and plasma creatinine levels measured. Additionally, transverse 10% formalin fixed kidney sections ([…]) were cut and stained with hematoxylin and eosin (H&E) and periodic acid Schiff (PAS) to further assess potential injury.

IL-10 mRNA [6] = assay: Liver IL-10 mRNA (RT-PCR); format: in vivo, CD-1 mice
Experimental: as §2

HK-2 cells = assay: HK-2 cell injury by MTT assay; format: cell-based; settings: 10 mg/ml, equimolar Na nitrite, 18 hr incubation
Experimental: HK-2 cells (a proximal tubule cell line derived from normal human kidney) were incubated in keratinocyte serum free medium either under normal (control) conditions or in the presence of 10 mg/mL horse skeletal muscle myoglobin or nitrited myoglobin (produced by equimolar Na nitrite addition to 10 mg/ml myoglobin). After 18 hr incubations, the severity of cell injury (% cell death) was assessed by MTT assay. Myoglobin induced 40% cell death (40% decrease in MTT cell uptake), compared to control incubated cells. Nitrite binding to myoglobin reduced cell death by 75%. Thus, nitrite binding is able to reduce myoglobin's cytotoxic effects.

HO-1 protein [7] = assay: Liver HO-1 protein (ELISA); format: in vivo, CD-1 mice; set-up: unit not given beside the values
Experimental: as §2

haptoglobin protein [8] = assay: Liver haptoglobin protein (ELISA); format: in vivo, CD-1 mice; set-up: unit not given beside the values
Experimental: as §2

HO-1 mRNA [9] = assay: Kidney HO-1 mRNA (RT-PCR); format: in vivo, CD-1 mice
Experimental: as §2

[10] = tested on: glycerol model of rhabdomyolysis-induced AKI; assay: Glycerol model of rhabdomyolysis-induced AKI; format: in vivo, CD-1 mice; settings: IV pretreatment 18 h before glycerol; 18 hours after glycerol
Experimental: Assessments of cytoresistance. Glycerol model of rhabdomyolysis-induced AKI. Twenty mice were divided into 4 equal groups (controls, mice treated with N-Mgb, SnPP, and mice treated with N-Mgb+SnPP tail vein injections) as described previously. 18 hours later, the mice were briefly anesthetized with isoflurane and immediately injected with 9 mL/kg of 50% glycerol, administered in equally divided doses into each hind limb. At 18 hours after glycerol injection, the mice were anesthetized with pentobarbital, the abdomen was opened, a blood sample for BUN and creatinine assessments was obtained from the vena cava, and the kidneys were resected. The control post-glycerol group and the N-Mgb+SnPP-pretreated glycerol group had kidney sections stained with H&E.
To assess whether the previously determined plasma and kidney HO-1 and haptoglobin levels correlated with degrees of cytoresistance, additional mice were injected with 0, 2.5, or 5 mg of N-Mgb […] of SnPP (n=3 mice per group). Eighteen hours later, all mice were subjected to the glycerol AKI model as described previously. Severities of AKI were determined 18 hours after glycerol injection by BUN and plasma creatinine analyses.
Calculations and statistics. All values are given as the mean […] standard error of the mean. Statistical comparisons were made by unpaired Student's t test. […]

HO-1 mRNA [11] = assay: Cardiac HO-1 mRNA (RT-PCR); format: in vivo, CD-1 mice
Experimental: as §2

IL-10 protein [12] = assay: Cardiac IL-10 protein (ELISA); format: in vivo, CD-1 mice
Experimental: as §2

HO-1 protein [13] = assay: Kidney HO-1 protein (ELISA); format: in vivo, CD-1 mice
Experimental: as §2

IL-10 protein [14] = assay: Liver IL-10 protein (ELISA); format: in vivo, CD-1 mice
Experimental: as §2

IL-10 protein [15] = assay: Kidney IL-10 protein (ELISA); format: in vivo, CD-1 mice
Experimental: as §2

IL-10 mRNA [16] = assay: Cardiac IL-10 mRNA (RT-PCR); format: in vivo, CD-1 mice
Experimental: as §2

haptoglobin mRNA [17] = assay: Kidney haptoglobin mRNA (RT-PCR); format: in vivo, CD-1 mice
Experimental: as §2

haptoglobin protein [18] = assay: Kidney haptoglobin protein (ELISA); format: in vivo, CD-1 mice
Experimental: as §2

[19] = Serum creatinine after 2 hr subcutaneous infusion of nitrited myoglobin + SnPP; format: in vivo, mice; settings: 2 hr SC infusion 1, 3, 6, 12, or 25 mg/Kg + 1 μmole SnPP; 18 hrs later
Experimental: Mice were subjected to a 2 hr subcutaneous infusion of 1, 3, 6, 12, or 25 mg/Kg of nitrited myoglobin (holding SnPP at a constant dose of 1 μmole). Eighteen hrs later, potential renal injury was assessed by measuring serum creatinine concentrations.
An obvious concern by applying this prophylactic strategy to patients is potential renal and/or extrarenal toxicities. […] Furthermore, it was previously documented in a cell culture system that nitrite addition markedly reduces myoglobin's cytotoxic effects by 75% (unpublished data, 2014). To assess the potential in vivo margin of safety for N-Mgb+SnPP (see Supplemental FIGS.), the maximal amount of N-Mgb that could be given to mice before nephrotoxicity was observed was tested. Up to 25 times the employed N-Mgb dose (with a constant SnPP dose) could be administered (over 2 hours) without induction of nephrotoxicity (normal BUN and creatinine, 18 hours later).

haptoglobin mRNA [20] = assay: Liver haptoglobin mRNA (RT-PCR); format: in vivo, CD-1 mice
Experimental: as §2

IL-10 mRNA [21] = assay: Kidney IL-10 mRNA (RT-PCR); format: in vivo, CD-1 mice
Experimental: as §2

HO-1 protein [22] = assay: Cardiac HO-1 protein (ELISA); format: in vivo, CD-1 mice; settings: 4 h after IV injection
Experimental: as §2

HO-1 mRNA [23] = assay: Liver HO-1 mRNA (RT-PCR); format: in vivo, CD-1 mice
Experimental: as §2

haptoglobin protein [24] = assay: Cardiac haptoglobin protein (ELISA); format: in vivo, CD-1 mice
Experimental: as §2

[25] = 4 h after IV injection, N-Mgb 1 mg, SnPP 1 mmol [sic]

tin mesoporphyrin [SnMeP]
Renal ischemic damage (BUN and plasma creatinine concentrations) [1]: lessening of ischemic damage | Renal cortical and plasma haptoglobin levels (haptoglobin): stepwise increases | Increase in renal cortical HO-1 levels over baseline (HO-1 protein [2]; 4 hrs post 1 umole injection): ~3 fold | Increase in renal cortical HO-1 levels over baseline (HO-1 protein [2]; 18 hrs post 1 umole injection): ~5 fold | Rise in plasma HO-1 levels (HO-1 protein [2]; 18 hrs post 1 umole injection): ~15 fold | Renal cortical HO-1 mRNA induction (HO-1 mRNA [3]): raised | Renal cortical haptoglobin mRNA induction (haptoglobin mRNA [4]): raised

B1: N-Mgb: horse myoglobin converted into a nitrited form by addition of equimolar sodium nitrite (protein, UniProt P68082 2-154, looked up)
Myoglobin: GLSDGEWQQVLNVWGKVEADIAGHGQEVLIRLFTGHPETLEKFDKFKHLKTEAEMKASEDLKKHGTVVLTALGGILKKKGHHEAELKPLAQSHATKHKIPIKYLEFISDAIIHVLHSKHPGDFGADAQGAMTKALELFRNDIAAKYKELGFQG
modifications: nitrite-modified
notes: horse myoglobin converted into a nitrited form by addition of equimolar sodium nitrite
Cardiac mRNA Haptoglobin (haptoglobin mRNA [5]; 4 h after IV injection): 0.75 ± 0.10 | Cardiac mRNA Haptoglobin (haptoglobin mRNA [5]; 18 h after IV injection): 0.53 ± 0.21 | Liver mRNA IL-10 (IL-10 mRNA [6]; 4 h after IV injection): 0.67 ± 0.46 | Liver mRNA IL-10 (IL-10 mRNA [6]; 18 h after IV injection): 0.06 ± 0.02 | Reduction of myoglobin-induced cell death by nitrite binding (HK-2 cells): 75% | Liver protein HO-1 (HO-1 protein [7]; 4 h after IV injection): 17 ± 2 | Liver protein HO-1 (HO-1 protein [7]; 18 h after IV injection): 14.9 ± 0.3 | Liver protein Haptoglobin (haptoglobin protein [8]; 4 h after IV injection): 359.5 ± 39.6 | Liver protein Haptoglobin (haptoglobin protein [8]; 18 h after IV injection): 358.8 ± 32.8 | Kidney mRNA HO-1 (HO-1 mRNA [9]; [25]): 3.38 ± 0.38 | Renal HO-1 mRNA increase, in words (HO-1 mRNA [9]; 4 hour, agent alone): only modest increases | Kidney mRNA cortex HO-1 (HO-1 mRNA [9]; 18 h after IV injection): 0.58 ± 0.18 | Protection against glycerol-induced AKI judged by BUN/creatinine levels [10]: modest protection | Cardiac mRNA HO-1 (HO-1 mRNA [11]; 4 h after IV injection): 0.09 ± 0.01 | Cardiac mRNA HO-1 (HO-1 mRNA [11]; 18 h after IV injection): 0.08 ± 0.01 | Cardiac Protein IL-10 (IL-10 protein [12]; 4 h after IV injection): 21 ± 12 | Cardiac protein IL-10 (L-10 [sic]) (IL-10 protein [12]; 18 h after IV injection): 14.5 ± 10^ | Renal HO-1 protein increase, in words (HO-1 protein [13]; 18-hour time point, agent alone): only relatively small HO-1 protein increases | Kidney HO-1 protein (HO-1 protein [13]; [25]): 36.1 ± 2.9 | Kidney protein HO-1 (HO-1 protein [13]; 18 h after IV injection): 30 ± 6 | Liver protein IL-10 (IL-10 protein [14]; 4 h after IV injection): 286 ± 32 | Liver protein IL-10 (IL-10 protein [14]; 18 h after IV injection): 5988 ± 549 | Kidney IL-10 protein (IL-10 protein [15]; [25]): 265 ± 54 | Kidney protein IL-10 (IL-10 protein [15]; 18 h after IV injection): 292 ± 54 | Renal IL-10 protein increase, in words (IL-10 protein [15]; 18 hours, agent alone): absence of IL-10 protein increases | Cardiac mRNA IL-10 (IL-10 mRNA [16]; 4 h after IV injection): 0.86 ± 0.11 | Cardiac mRNA IL-10 (IL-10 mRNA [16]; 18 h after IV injection): 0.67 ± 0.10 | Kidney mRNA Haptoglobin (haptoglobin mRNA [17]; [25]): 1.94 ± 0.31 | Kidney mRNA cortex Haptoglobin (haptoglobin mRNA [17]; 18 h after IV injection): 0.24 ± 0.04 | Renal haptoglobin protein levels, in words (haptoglobin protein [18]; 18-hour time point, vs combination): comparably increased | Kidney Haptoglobin protein (haptoglobin protein [18]; [25]): 17.6 ± 1^ | Kidney protein Haptoglobin (haptoglobin protein [18]; 18 h after IV injection): 183.8 ± 20.4 | Serum creatinine concentration change [19]: No significant increase | Liver mRNA Haptoglobin (haptoglobin mRNA [20]; 4 h after IV injection): 0.98 ± 0.1 | Liver mRNA Haptoglobin (haptoglobin mRNA [20]; 18 h after IV injection): 0.91 ± 0.07 | Impact on renal IL-10 mRNA levels, in words (IL-10 mRNA [21]; 4-hour time point, agent alone): either minimal or no impact | Kidney mRNA IL-10 (IL-10 mRNA [21]; [25]): 1.45 ± 0.6 | Kidney mRNA cortex IL-10 (IL-10 mRNA [21]; 18 h after IV injection): 0.43 ± 0.10 | Cardiac protein HO-1 (HO-1 protein [22]): 1.64 ± 0.19 | Liver mRNA HO-1 (HO-1 mRNA [23]; 4 h after IV injection): 1.83 ± 0.33 | Liver mRNA HO-1 (HO-1 mRNA [23]; 18 h after IV injection): 0.82 ± 0.07 | Cardiac protein Haptoglobin (haptoglobin protein [24]; 4 h after IV injection): 40.4 ± 8.6 | Cardiac protein Haptoglobin (haptoglobin protein [24]; 18 h after IV injection): 249.6 ± 15.0
